# Reference: a protein production outcome set (Wang et al. 2014)
# Experiment: label from the status in PepcDB records
row,Sequence,protein production
1,MIGSTSDGLVPGNTDMPATPTTALTALRTPHPPTGGESMHPRTRTAPALLFAVCLTALAAYPAAADDPVPTTERVSVTLDGAQIDDPSYRPQLTSKGGVVYTSDGPVWSTDHNGVSDAYRNSERVSYNMGAARSYDPSACHTARMIAFVSDRTPAGGTTPSVYVRNTPVGKLSYASHGYQGVPFTWAGQPAMSADCQWMAFSATLPATPDHVEQPRVYRYRIYDGTIEQVSPDSADGSRAAVRPSISADGRYVAYQSSIPHPGGPANDSDIYVRDLETGTLEKASVGRHGRPADRASTGPSLSADGRHVAFDSYASNLAPGDTNGTVNVFVRDLDAGTTRLVKGAGRHAYTAEAALSGDGLHLAYVSAGIRGSRGVPAVYLRDLATGRTRLISVDTRGHRNDRAAGNPSVNPDGTAVAFDSASPDLVPGDTNGTVDVFLRRLGSPEALEHHHHHH,not failed
2,MNEFAQSPRSCVLGCSGLGYSVRGTPLLSDVDLSIATGETLAVVGPNGSGKSTLLKLLAGIQKPGSGAVRLGEQALAAMSRRDVARLLAVVEQQAETSDAVTVLDAVELGRTPWLSALEPWSANDDAIVRQALQDVDMLHMQKRAWHTLSGGERQRVHIARALAQRPQILLLDEPTNHLDIQHQLTILGLVRALPVTTVIALHDLNQALDCDRVAVMEKGRLVALGTPVEVLTPKRLLSTFGVVAHWLTDPFDGAKILRLRSR,failed
3,GKIEEVVLGATKADGGTREYTVTLGGERSLAFYTFDAPQPHLPAIAIDVFDRRPMLAKAVRMHYEDVLDNPAEWARKCVKKFGADLVTLHLISTDPLLDDTPASEAVKVLEDVLQAVKCPIIVGGSGNKEKDPEVLEKAAEVAEGERIMLASATLDMDWERIANAAKKYGHVVLSWTQMDINNQKTLNRYLLKRVEMPRDSIVMDPTTAALGYGLDYAFTNMERIRISGLKGDTDLNFPISSGTTNAWGAREAWMVDSPIEEDTPWGPRELRGPIWEIITGLTLSLAGVDLFMMMHPVAVAVLKEVFNTLGGKVSGGVADPGEWIFME,failed
4,MGHHHHHHSHMSPFLRIGLSNFDCGSCQSCQGEAVNPYCAVLVKEYVESENGQMYIQKKPTMYPPWDSTFDAHINKGRVMQIIVKGKNVDLISETTVELYSLAERCRKNNGKTEIWLELKPQGRMLMNARYFLEMSDTK,not failed
5,MNFIVIGAGNIGSGIAQNLLEDGHEVEIADKSRESLNRIRGRNPKIRTREFDVMDRSAYRMLNDYDASVSALPGSIGMQFLKNVAKMGKIVVDVSYMEEDPYDLNGIAQSAGTIIVPDMGFAPGLTNAIVGYFSADLDQIRNVKIYVGGIPEKPVPPLDYTITWSVEG,failed
6,MRILADTNVIIDALTSREPWNKSAEEIFLMAANHTIEMYITASSATDIYYLIRKHLHNTETAKMIMGKLYSLTGILEVTADDCMDALASAISDYEDAVVEKVASRKDMDYIVTRNIKDYQAGGTKIILPDDFVKLVEEELEHHHHHH,failed
7,MERLTSPPRLMIVSDLDETMVDHHKDPENLALLRFNSLWEDAYRHDSLLVFSTGRAQTMYKKLRKEKPLLTPDVIITSVGTEIAYGNSMVPDDNWVEILNKKWDRGIVQEETSKFPELTLQGETEQRPHKLSFNIDKSKVKAVTKELSPRLEKRGVDVKFIFSGGNAFDVLAKGGGKGQALAYLLKKLKTEGKLPINTLACGDSGNDTELFTIPNVYGVMVSNAQEELLEWYAENAKDNANIIHASERCAGGITQAIGHFKLGPNLSPRDVSDFLECKADNVNPGHEVVKFFLFYERWRRGEVENCTTYTSSLKASCHPSGVFVHPSGAEKSLRDTIDELGKYYGDKKGKKFRVWTDQVLATDTTPGTWIVKLDKWEQTGDERKCCTTTVKFTSKEGEGFVWEHVQQIWSEETEIKDDSNWII,failed
8,MRLALFDLDNTLLGGDSDHAWGDYLYQRGILDAATYKSRNDEFYQDYLAGTLNMTDYLNFTLEILGNTDMAQLQEWHREFMRDCIEPIMLPKALELIAKHREAGDKLVVITATNRFVTAPIVARLGIETLLATECEMVDGRYTGRTTGVPCFREGKVTRLNQWLEDNAFSLEDSYFYSDSMNDLPLLEQVANPVAVDPDARLRAEAEQRGWPVITLRS,failed
9,MKFKIHSDITYQVMSPTTFIFNVHALRTESQHILDESLIVTPPIEIEEFSYNSGTSRFVRLKATENTTFSMSYTATVDTQYKVIDQRQELETVPVVDLDGDIIPFLFPSRYCQSDKLQKLAYKEFGKIENVYSKVLAITDWIYNNVEYISGSTNSQTSAFDTITERAGVCRDFAHLGIALCRALSIPARYFTGYAFKLNPPDFHACFEAYIGGNWIIFDATRLVPLNGLVKIATGRDAADAAVASIFGNASSTNMHVECASLDTDFTPFWYDKNSLKGLSFQ,not failed
10,MQNTIIQKAVNKDLNSILEITKDALNAMKTMNFHQWDENYPNEIVFQEDIQAQELYVFKENDEILGFICINEKFKPEFYKQVIFNKNYDDKAFYLHRLAVKQNAKGKGVAQKLLNFCENFALENHKASLRADTHSKNFPMNSLFKKLDFNFCGNFDIPNYQ,failed
11,MNISPKAIKVRNIWIGGTEPCICAPVVGEDDRKVLREAEEVCRKQPDLLEWRADFFRAIDDQERVLATANGLRNIAGEIPILFTIRSEREGGQPIPLNEAEVRRLIEAICRSGAIDLVDYELAYGERIADVRRMTEECSVWLVVSRHYFDGTPRKETLLADMRQAERYGADIAKVAVMPKSPEDVLVLLQATEEARRELAIPLITMAMGGLGAITRLAGWLFGSAVTFAVGNQSSAPGQIPIDDVRTVLSILQTYSR,not failed
12,MICYKCGQDAGWNDKCPVCGADLSLFKRAIRISNSYYNDGLQKAQVRNLSGAIISLRQSLKFYKYNIQARNLLGLIYYEMGEMVDALSEWVISANYQPDDNLAKKYIDQIHNNRNQLETINQTIKKYNQALTYCKQDSKDLAVIQLRKVLSLNPKLVKGHQLLALLYLEEGHLDKAKKALRDAGKIDTDNTTTLRYLKEVNRRLKEKGTERKKKNDDLISYQSGNETIIMPKRFRESSMWANILYIIIGLVVGVAVTCFLVVPGIKSQAKTDAKKQLLSANDTISTNGQTISGLNDQIDKLKKELEDEKKKNDGVSDQISTYEALLNAYVYYTTNDVIKAGEALENINTSYLSDSAKQTYDTLNGSIADSYKEALYSQAYSSYSSGDYQSAIPTFQKLVGMDEAYRDGSAAYYLAQSFRKSGDLASAKPYYQYVVDNYAGTEKARTSKNYLAQEQQ,failed
13,MTTTFEFLQPRIHGFATCCSSNSLLYSKASRFFNDRCRVYRQNPNRFVSNSITLPLQKKQVTVLRNHERFNLWDGFSRKKSRLVVNCQEDDQNESSSEEEESSQSTPAKSERKREKKEDKVWWSKGKKWQWQPIIQAQGIGVLLLQLSVVMFVMRLLRPGIPLPGSEPRIQTTFVSVPYSEFLSKVNSNQVQKVEVDGVQVLFKLRDDGKWQESETSRLSQSSESLLRTVAPTKRVVYSTTRPGDIKTPYEKMLGNNVEFGSPEKRSGGFFNSALIALFYIAVLAGLIRFPVSFSTSSTGQLRTRKAGGPDGGKVSGGGETITFADVAGVDEAKEELEEIVEFLRNPEKYVRLGARPPRGVLLVGLPGTGKTLLAKAVAGEAEVPFISCSASEFVELYVGMGASRVRDLFARAKKEAPSIIFIDEIDAVAKSRDGKFRMGSNDEREQTLNQLLTEMDGFDSNSAVIVLGATNRADVLDPALRRPGRFDRVVTVETPDKIGRESILRVHVSKKELPLGDDVNLGSIASMTTGFTGADLANLVNEAALLAGRKNKTNVEKIDFIQAVERSIAGIEKKSARLKGNEKAVVARHEAGHAVVGTAVANLLTGQPRVEKLSILPRTGGALGFTYIPPTSEDRYLLFIDELLGRLVTLLGGRAAEEVVYSGRISTGAFDDIRRATDMAYKAVAEYGLNQKIGPVSVATLSGGGIDDSGGSPWGRDQGKLVDLVQKEVTILLQSALDVALSVVRANPDVLEGLGAQLEEKEKVEGEELQKWLSMVVAPEELAVFVEGKQELLLPAQASSS,failed
14,MSSFFTGKDDSAVEELLSQAKDQYVLEQVAKINCSGFTDDTALPTNPETRLRRLKSLPVSRTDSVSSSPKKLLSHSNSMASHPEKKYRGNVSSVSSFSIQVGKSCPLDSSVEETQIFSKTKRNQSVKSRGGLGESSGSKRIGSSSSRFSCGNVSSTGSSSSRFSREGNISTATKTLKLPC,not failed
15,MLKYQQIATEIETYIEEHQLQQGDKLPVLETLMAQFEVSKSTITKSLELLEQKGAIFQVRGSGIFVRKHKRKGYISLLSNQGFKKDLEDFNVTSKVIELDVRKPTPEAAENLNIGMDEDIYYVKRVRYINGQTLCYEESYYTKSIVTYLNNEIVSHSIFHYIREGLGLKIGFSDLFLHVGQLNEEEAEYLGLEAGLPKLYIESIFHLTNGQPFDYSKISYNYEQSQFVVQANSFLL,not failed
16,MSESIVTKIISIVQERQNMDDGAPVKTRDIADAAGLSIYQVRLYLEQLHDVGVLEKVNAGKGVPGLWRLLLEHHHHHH,not failed
17,MTGRVCVLVMDSFGIGASLDAARYGDAGANTLVHIYEACKRGECDIEGVRKGPLMLPNLAGKGLYHAAMASSGLSFIDLATLAIPSGYYGYAVEQSLGKDTPSGHWEMAGVPVTFEWGYFPDKPYCFPEELISEFIKQCNLPGVLGEKHASGTIIIDELGEKHIRTGKPIVYTSADSVFQIAAHEEAFGLQRLYDICKIARNLVDKYQIGRVIARPFTGKPGSFKRTGNRKDYATPPPEKTLLDFLKEDGREVIAIGKIADIYAHQGVTQEIKADGNMALFDATLSAMKTAPQGSLVFTNFVDFDSSYGHRRDIAGYAHALEQFDARLPELDALLQPDDMVFIAADHGCDPTFPGSDHTREHIPVLVFGPQVNSKFIGRRDCFADIGQSIAEHLQLSSPLAHGVSFL,failed
18,MNVMQENQIKLIEHIKQAVVQAVGLEETEVPEILLEVPKDKKHGDYSTNIAMQLARVAKKAPRQIAESIVPELKKDTKLIKEVEIAGPGFINFYLDNAYLTDLVPVILTEDKKYG,not failed
19,MSLIYQIAKEFDFCYGHRVWSQELNPDFSLDPCLSCRHLHGHQGKVIVHLESRELQRGMVTDFAHLNWFKRFIDEVLDHRFIIDIDDPLFPTLLPHFADKSALVWMEEGYARVDFERIKGESSPILELYESFVVVRFVPTSESIASWLLELLRSRIQPLGVKVSSVEFLETPKSRARVYNEGHHHHHH,not failed
20,MASFYWRIKNEPYQVVECAMRALHFSSRHNKDIALVNLANVLHRAHFPADAAVVVHAALDDSDFFTSYYTLGNIYAMLGEYNHSVLCYDHALQARPGFEQAIKRKHAVLCQQKLEQKLEAQHRSLQRTLNELKEYQKQHDHYLRQQEILEKHKLIQEEQILRNIIHETQMAKEAQLGNHQICRLVNQQHSLHCQWDQPVRYHRGDIFENVDYVQFGEDSSTSSMMSVNFDVQSNQSDINDSVKSSPVAHSILWIWGRDSDAYRDKQHILWPKRADCTESYPRVPVGGELPTYFLPPENKGLRIHELSSDDYSTEEEAQTPDCSITDFRKSHTLSYLVKELEVRMDLKAKMPDDHARKILLSRINNYTIPEEEIGSFLFHAINKPNAPIWLILNEAGLYWRAVGNSTFAIACLQRALNLAPLQYQDVPLVNLANLLIHYGLHLDATKLLLQALAINSSEPLTFLSLGNAYLALKNISGALEAFRQALKLTTKCPECENSLKLIRCMQFYPFLYNITSSVCSGNCHEKTLDNSHDKQKYFDNSQSLDAAEEEPSERGTEEDPVFSVENSGRDSDALRLESTVVEESNGSDEMENSDETKMSEEILALVDEFQQAWPLEGFGGALEMKGRRLDLQGIRVLKKGPRDGVARSSCYGDCRSEDDEATEWITFQVKRVKKPKGDHKKTPGKKVETGQIENGHRYQANLEITGPKVASPGPQGLLDWKTRKVP,failed
21,MSNSSIDIGVPSLPPPFSIGTISIPTFSRQHLFLKIILHYNLVERYSRQLIVLGLGIQQRLNELKILIAGCGALGTAVAELLARLGVKELTIVDADVVDITNLHRVHLFDENDVGKPKAEVCAKKISLINSSIKINYIIDILDEENVERLISDKDYVFDALDSLYYKLLLNDAIVKLGKILIYGGINGEYGSAKLIDPSQTSCLSCFIDYSDQDEIGNSCDVIGTTPLIVELTATLQVNLMLNHLRGNPDYSLFYIDSRELKIERINIEKNSQCKTCVLNEYPFLYQKISKPKCGIFRTNMKIPELDEPKVFKNLGNVTLCYPSIGCFEKRGR,failed
